Results as given in publication PMC2363969 (British Journal of Cancer, 2001).

B1: gp100/pmel17 506-522 (peptide)
peptide: EGDAFELTVSCQGGLPK
notes: gp100/pmel17 melanoma-associated antigen, residues 506-522; also called gp100506-522; g506; source: synthetic peptide (FMOC chemistry, UPCI Peptide Synthesis Facility), >90% pure
B2: gp100/pmel17 283-304 (peptide)
peptide: PGPVTAQVVLQAAIPLTSCGSS
notes: gp100/pmel17 melanoma-associated antigen, residues 283-304; also called gp100283-304; g283; source: synthetic peptide (FMOC chemistry, UPCI Peptide Synthesis Facility), >90% pure
B3: gp100/pmel17 540-561 (peptide)
peptide: LCQPVLPSPACQLVLHQILKGG
notes: gp100/pmel17 melanoma-associated antigen, residues 540-561; also called gp100540-561; g540; source: synthetic peptide (FMOC chemistry, UPCI Peptide Synthesis Facility), >90% pure
B4: gp100/pmel17 6-26 (peptide)
peptide: KRCLLHLAVIGALLAVGATKV
notes: gp100/pmel17 melanoma-associated antigen, residues 6-26; also called gp1006-26; g6; source: synthetic peptide (FMOC chemistry, UPCI Peptide Synthesis Facility), >90% pure
B5: gp100/pmel17 167-189 (peptide)
peptide: VSGLSIGTGRAMLGTHTMEVTVY
notes: gp100/pmel17 melanoma-associated antigen, residues 167-189; also called gp100167-179; g167; source: synthetic peptide (FMOC chemistry, UPCI Peptide Synthesis Facility), >90% pure

Target: HLA-DRB1*0401 (human)
Test: radioligand binding; solid-state competitive-binding assay (as in Southwood et al, 1998): the peptide blocks the binding of a radio-labeled reference peptide to purified HLA-DR4 complexes; IC50 in nM
Conditions: both partners purified

Point of comparison: B2, IC50 2890 nM. Against it:
- B1 — within 1.5-fold, 3210 nM

Target: HLA-DRB1*0404 (human)
Test: as above
Conditions: both partners purified

Point of comparison: B5, IC50 372 nM. Against it:
- B1 — 9.5-fold higher, 3550 nM
- B3 — 1.7-fold higher, 614 nM
- B4 — within 1.5-fold, 335 nM
